{"source": "paper doi:10.1101/2022.11.03.514279", "about": "(bioRxiv, 2022)", "binders": {"B1": {"name": "pVII (f1 phage minor capsid protein) (natural protein, f1 filamentous phage, UniProt P69534 1-33, looked up)", "chain": "MEQVADFDTIYQAMIQISVVLCFALGIIAGGQR"}}, "key": {"[1]": {"target": "B1", "assay": "cryo-EM structure"}, "[2]": {"target": "the molecule itself", "assay": "cryo-EM structure"}}, "data": [{"binder": "MSVLVYSFASFVLGWCLRSGITYFTRLMETSS (natural protein, f1 filamentous phage, UniProt P69537 1-32, looked up)", "note": "[pIX (f1 phage minor capsid protein)]", "values": [{"measurement": "binding result", "setting": "[1]", "result": "binds"}]}, {"binder": "pVI (f1 phage minor capsid protein) (natural protein, f1 filamentous phage, UniProt P69531 1-112, looked up) MPVLLGIPLLLRFLGFLLVTLFGYLLTFLKKGFGKIAIAISLFLALIIGLNSILVGYLSDISAQLPSDFVQGVQLILPSNALPCFYVILSVKAAIFIFDVKQKIVSYLDWDK", "values": [{"measurement": "stoichiometry N", "setting": "[2]", "result": 5}]}, {"binder": "B1", "values": [{"measurement": "stoichiometry N", "setting": "[2]", "result": 5}]}]}
